How the values were obtained:
[1] = test system: Ah receptor/ARNT complex (TCDD-transformed, endogenous in cytosol); assay: ELONA; settings: EC50 is for TCDD dose, not DNA; 30 C, Ah-ELISA on neutravidin plate, anti-ARNT detection
[2] = biological target: transformed Ah receptor/ARNT complex (Cavia porcellus, UniProt Q6J287); assay: mini-Ah immunoassay with anti-ARNT detection of transformed Ah receptor/ARNT complex; assay type: biochemical, guinea pig (male Hartley, hepatic cytosol); set-up: AHR/ARNT heterodimer on DRE gel, anti-ARNT detection; in some samples recombinant baculovirus ARNT (Bradfield) added; settings: Example 4
transformed Ah receptor/ARNT complex, sequence (Q6J287 10-846): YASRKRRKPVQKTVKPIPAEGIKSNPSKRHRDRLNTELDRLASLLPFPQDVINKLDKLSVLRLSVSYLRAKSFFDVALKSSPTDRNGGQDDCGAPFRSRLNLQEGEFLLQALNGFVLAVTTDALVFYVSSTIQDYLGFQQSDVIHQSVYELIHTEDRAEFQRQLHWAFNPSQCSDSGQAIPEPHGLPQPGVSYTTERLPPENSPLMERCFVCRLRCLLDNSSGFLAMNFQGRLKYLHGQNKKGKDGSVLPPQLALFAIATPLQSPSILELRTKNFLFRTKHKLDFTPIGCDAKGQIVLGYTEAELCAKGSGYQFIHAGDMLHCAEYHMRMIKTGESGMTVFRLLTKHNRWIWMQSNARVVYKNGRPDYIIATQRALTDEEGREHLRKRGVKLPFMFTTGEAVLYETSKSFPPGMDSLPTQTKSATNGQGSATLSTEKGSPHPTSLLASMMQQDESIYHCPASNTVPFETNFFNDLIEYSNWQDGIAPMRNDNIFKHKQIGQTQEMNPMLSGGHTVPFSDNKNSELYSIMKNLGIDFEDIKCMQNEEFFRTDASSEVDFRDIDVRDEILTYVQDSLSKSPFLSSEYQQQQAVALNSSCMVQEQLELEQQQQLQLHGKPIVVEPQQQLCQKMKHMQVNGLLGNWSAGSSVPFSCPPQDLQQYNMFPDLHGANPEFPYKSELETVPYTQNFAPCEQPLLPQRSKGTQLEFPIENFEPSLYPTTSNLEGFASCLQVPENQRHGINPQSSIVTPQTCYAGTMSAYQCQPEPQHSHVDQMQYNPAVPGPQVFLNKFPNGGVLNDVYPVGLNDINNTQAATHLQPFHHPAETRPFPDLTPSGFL
transformed Ah receptor/ARNT complex, sequence (Q0WXX3 1-790 partner): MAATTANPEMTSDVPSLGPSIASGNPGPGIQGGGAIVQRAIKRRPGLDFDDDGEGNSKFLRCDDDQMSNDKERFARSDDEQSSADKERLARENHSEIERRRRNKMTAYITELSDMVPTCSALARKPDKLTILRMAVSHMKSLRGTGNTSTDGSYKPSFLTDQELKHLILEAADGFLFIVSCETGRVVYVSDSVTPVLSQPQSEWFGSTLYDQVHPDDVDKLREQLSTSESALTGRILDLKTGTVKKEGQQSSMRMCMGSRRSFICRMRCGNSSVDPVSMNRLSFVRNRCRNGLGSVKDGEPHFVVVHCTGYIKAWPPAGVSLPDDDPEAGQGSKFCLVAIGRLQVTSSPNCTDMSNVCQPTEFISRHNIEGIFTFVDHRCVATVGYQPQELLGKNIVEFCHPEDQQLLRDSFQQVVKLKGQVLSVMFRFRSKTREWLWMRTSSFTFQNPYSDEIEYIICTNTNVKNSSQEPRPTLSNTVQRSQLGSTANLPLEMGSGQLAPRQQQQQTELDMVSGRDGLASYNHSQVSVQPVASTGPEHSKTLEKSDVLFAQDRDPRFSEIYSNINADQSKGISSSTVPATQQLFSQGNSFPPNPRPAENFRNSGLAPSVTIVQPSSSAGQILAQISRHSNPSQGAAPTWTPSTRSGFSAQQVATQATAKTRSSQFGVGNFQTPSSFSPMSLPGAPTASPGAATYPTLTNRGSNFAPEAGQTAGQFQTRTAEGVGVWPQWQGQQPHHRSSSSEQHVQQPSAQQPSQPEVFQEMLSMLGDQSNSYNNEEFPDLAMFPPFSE
transformed Ah receptor/ARNT complex, sequence (P27540 whole entry partner, the tested form may be a part): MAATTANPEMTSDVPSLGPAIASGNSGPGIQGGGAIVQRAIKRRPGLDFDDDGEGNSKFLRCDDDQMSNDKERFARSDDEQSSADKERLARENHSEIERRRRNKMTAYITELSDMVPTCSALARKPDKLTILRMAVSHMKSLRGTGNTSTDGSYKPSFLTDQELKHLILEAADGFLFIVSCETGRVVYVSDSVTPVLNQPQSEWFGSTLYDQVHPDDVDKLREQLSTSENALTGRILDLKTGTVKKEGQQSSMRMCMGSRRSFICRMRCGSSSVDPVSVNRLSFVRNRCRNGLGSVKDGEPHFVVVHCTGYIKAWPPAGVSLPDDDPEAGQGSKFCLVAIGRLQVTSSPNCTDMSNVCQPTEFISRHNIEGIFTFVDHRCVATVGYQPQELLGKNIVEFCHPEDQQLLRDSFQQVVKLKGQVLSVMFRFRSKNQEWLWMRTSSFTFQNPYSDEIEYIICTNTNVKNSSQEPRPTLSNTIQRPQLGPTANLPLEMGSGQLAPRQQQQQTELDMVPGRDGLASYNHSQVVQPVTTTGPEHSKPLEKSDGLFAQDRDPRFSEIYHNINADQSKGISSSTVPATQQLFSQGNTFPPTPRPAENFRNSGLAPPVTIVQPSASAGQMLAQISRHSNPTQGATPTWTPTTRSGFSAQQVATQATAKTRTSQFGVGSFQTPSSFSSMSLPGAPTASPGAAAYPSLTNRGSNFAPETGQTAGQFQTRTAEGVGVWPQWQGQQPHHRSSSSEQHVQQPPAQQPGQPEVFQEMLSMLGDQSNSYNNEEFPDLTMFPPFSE
Procedure: (§1) Male Hartley guinea pigs weighing 300-350 g were obtained from Cornell Research Animal Resources, Cornell University, Ithaca, N.Y. Guinea pigs were anaesthetized and killed with carbon dioxide. Livers were perfused in situ with 100 mL ice-cold perfusion buffer, excised, trimmed of connective tissue, poorly perfused liver and gall bladder and weighed. The liver was minced and five mL of ice-cold HEDG per gram liver were added and the whole homogenized in a 50 mL homogenizer with teflon pestle using at 200 rpm for a total of seven strokes. Crude homogenate was centrifuged at 12,500 RPM in 50 mL tubes in a JA17 rotor in a Beckman J2-MI preparative centifuge at 4 degrees C for 20 minutes.
(§2) For a typical mini-Ah immunoassay utilizing 12 samples, 5 mL of Transformed Ah Receptor Affinity Gel slurry described above was pipeted into a 50 mL conical tube. The slurry was washed with 40 mL HEDG and centifuged at 1000 g for 5 min, the supernatant withdrawn and discarded, the pellet washed with 40 mL HEDG, and centrifuged again. After the second centrifugation all but 5 mL of supernatant was withdrawn and the gel thus resuspended in the original volume. 10 mL guinea pig hepatic cytosol was thawed. The thawed cytosol was pooled and then divided into two 5 mL groups and treated with either 5 uL DMSO or 5 uL 10 uM TCDD in DMSO.
(§3) Assembly of transformation mixture:In the preferred embodiment of the mini-Ah immunoassay, each sample was composed of one 1.5 mL microfuge tube with the following sequential additions: 90 uL 4 M NaCl/HEDG, 400 uL Transformed Ah Receptor Affinity Gel slurry and 800 uL cytosol (treated with DMSO or TCDD as described above). The three components described above are the minimum components added at that step of the mini-Ah immunoassay. Any additional materials, such as ARNT, anti-ARNT and anti-Rabbit/alkaline phosphatase conjugate, were sometimes also added at this time as described in the specific examples. After assembly of the samples, the tubes were capped and the samples incubated at room temperature for 2 hours with gentle rocking to allow transformation of the Ah receptor to take place, interaction of transformed Ah receptor and ARNT, and binding of the transformed Ah receptor as a heteromer to the DRE oligonucleotide contained on the Transformed Ah Receptor Affinity Gel.
Immunoprobing of transformed Ah receptor: The nitrocellulose membrane was then removed from the ELIFA apparatus, rinsed briefly with water, and placed in 20 mL blocker containing test antibody. All antibodies were incubated with the nitrocellulose membrane for one hour at room temperature. When the test antibody was anti-Ah receptor/alkaine phosphatase conjugate, 100 uL anti-Ah receptor/alkaline phosphatase conjugate (1:200), per 20 mL blocker was used. When anti-ARNT was added to the transformation mixture, anti-Rabbit/alkaline phosphatase conjugate (Sigma, St. Louis, Mo.) diluted 1:1000 (20 uL to 20 mL blocker) was used to probe the membrane. When ARNT, anti-ARNT and anti-Rabbit or anti-ARNT and anti-Rabbit was added to the transformation mixture, the Immunoprobing step was eliminated.
Immunodetection and densitometry: In all cases the nitrocellulose membrane was rinsed prior to immunodetection 3 times for 5 min each with 100 mL TBST, briefly washed in AP development buffer and developed in freshly made BCIP/NBT developer for 5 min, whereupon the color reaction was stopped by washing the membrane in water.
Quantitative data were obtained by scanning the dried membrane in a Microtek 600ZS scanner in gray scale, 300 dpi, 0% brightness, 0% contrast. Densitometric measurements of the dot-blots were made using ScanAnalysis software (Biosoft, Cambridge U.K.).
Cytosol and DRE affinity gel are prepared as described above. Cytosol is dosed with 1:1000 v/v DMSO (-) or 1:1000 v/v 10 uM 2,3,7,8-tetrachlorodibenzo-p-dioxin in DMSO (+).
Immunoprobing of transformed Ah receptor is as described above with the following probes. […]

transformed Ah receptor = biological target: T1, transformed Ah receptor (Cavia porcellus, UniProt Q6J287); assay: mini-Ah immunoassay (DRE affinity gel, dot-blot spot density), with or without added recombinant ARNT; assay type: biochemical, guinea pig (male Hartley, hepatic cytosol)
T1 construct: TCDD-transformed receptor captured as heterodimer on DRE-oligonucleotide gel; recombinant ARNT added in some protocols
T1 sequence (Q6J287 10-846): as the sequence (Q6J287 10-846) above
T1 sequence (Q0WXX3 1-790 partner): as the sequence (Q0WXX3 1-790 partner) above
Procedure: as §1
Procedure for the mini-Ah Immuno Assay
Preparation of Buffers: 155 uM TCDD stock was prepared by dissolving 1 mg 2,3,7,8-tetrachloro-dibenzo-p-dioxin (Cambridge Isotope Labs) in 20 mL DMSO (dimethylsulfoxide) overnight. 10 uM working dilution of TCDD was prepared by diluting 0.129 mL of the stock with 1.871 mL DMSO. 4M NaCl/HEDG was prepared by adding 116.88 g sodium chloride to 300 mL HEDG and adjusting the volume to 500 mL with HEDG. 0.3 M NaCl/HEDG was prepared by diluting 1.5 mL 4 M NaCl/HEDG to 20 mL with HEDG 0.6 M NaCl/HEDG was prepared by diluting 3.0 mL 4 M NaCl/HEDG to 20 mL with HEDG TBST was prepared by dissolving 1.18 g Tris-base, 6.35 g Tris-HCl, 8.76 g NaCL, and 2 mL Tween 20 in 800 mL water, adjusting volume to 1000 mL. Blocker was prepared by dissolving 10 g non-fat dry milk (Carnation) in 200 mL TBST. AP development buffer was prepared by dissolving 11 g Tris-base, 1.6 g Tris-HCl, 5.84 g Sodium Chloride, 10.2 g Magnesium Chloride hexahydrate, in 800 mL water and adjusting the volume to 1000 mL. BCIP stock was prepared by dissolving 100 mg BCIP (5-Bromo-4-Chloro-3-Indolyl Phosphate) in 2 mL N,N-Dimethylformamide, aliquoting into 66 uL portions, and freezing at -20 C until use. NBT stock was prepared by dissolving 250 mg NBT (Nitro Blue Tetrazolium) in 25 mL water, aliquoting into 660 uL proportions, and storing at -20 C until use. BCIP/NBT developer was prepared immediately before use by mixing one 66 uL aliquot of BCIP and one 660 uL aliquot of NBT in 20 mL AP development buffer.
as §2, §3
Isolation transformed Ah receptor: After the 2 hour incubation the mixtures were pipetted into the empty column barrels and allowed to drain. […]

Substance | EC50 [1] [pM] | effect of ARNT addition on response [2] | effect of ARNT amount on response (transformed Ah receptor; 0.5 ug vs 2 ug ARNT, Example 2) | effect of ARNT addition on non-TCDD dependent transformation of the Ah receptor (transformed Ah receptor; ARNT 2 ug/assay, Example 1) | increase of TCDD-dependent response by ARNT addition (transformed Ah receptor; ARNT 2 ug/assay, Example 1) [%]
B-DRE (DRE-D/B-ERD) | 500 | – | – | – | –
ARNT: Purified recombinant ARNT (Ah Receptor Nuclear Translocator) | – | improves response | 0.5 ug arnt gave less response than 2 ug ARNT | did not increase non-TCDD dependent transformation of the Ah receptor | 354

Reference: patent publication US6127136A, “Detection of dioxin-like compounds by detection of transformed Ah receptor/ARNT complex” (Paracelsian, Inc., priority 1996, dated 2000)
